Assay results from US20060073572A1, “Cytokine structurally related to IL-17” (The Johns Hopkins University, priority 2001, published 2006).
“Also recorded” adds a separate entry of the source.

Tested on: IL-6
Assay: IL-6 expression in HUVECs (ELISA, RT-PCR)
Type: cell-based, human
Details: ML-1 10 and 100 ng/ml, 24 and 48 hours, ELISA
Experimental: FIG. 5. Analysis of IL-6 (FIG. 5A) and IL-8 (FIG. 5B) expression in primary bronchial epithelial cells (PBECs) and human umbilical vein endothelial cells (HUVECs) stimulated by ML-1. The IL-6 and IL-8 protein release in the supernatant was determined by ELISA as described in Example 8. The results were expressed as mean+SD (n=6). *p<0.05 was considered significant vs control.
FIG. 7A-7D. Effect of PD98059 on IL-6 (FIG. 7A) and IL-8 (FIG. 7B) protein production in PBECs and HUVECs. The cells were preincubated with varying concentrations of PD98059, SB202190, or DMSO vehicle control for 1 hour, followed by stimulation with ML-1 (100 ng/ml) for 24 hours. The results are expressed as the mean+SD (n=6). *P<0.05 when compared to cultures without the addition of PD98059. FIGS. 7C and 7D. Semi-quantitative analysis of gene expression for IL-6 (FIG. 7C) and IL-8 (FIG. 7D) by RT-PCR. The cells were preincubated as described above and treated with ML-1 for 4 hours. RT-PCR was performed as described in Example 8. The results shown are representative of three separate experiments.
Human umbilical vein endothelial cells (HUVECs) were obtained from Clonetics and cultured in endothelial cell growth media (EGM; Clonetics) containing 12 μg/ml bovine brain extract, 10 ng/ml EGF, 1 μg/ml hydrocortisone, 50 μg/ml gentimicin, 50 ng/ml amphotericin B, and 5% FBS amphotericin-B (Clonetics).
PBECs and HUVECs were treated with ML-1 100 ng/ml of ML-1 for various time points. Total RNA was extracted using RNeasy (Qiagen) from 1×10^6 cells 4 hours after stimulation or exchange of media. […]
The amplification reaction was performed for 23 cycles with denaturation at 94° C. for 45 seconds, annealing at 56° C. for 45 seconds, and extension at 72° C. for 45 seconds. PCR products were detected by ethidium bromide staining and normalized by the intensity of an amplified housekeeping gene, G3PDH (see above). […] IL-6 and IL-8 protein levels in the collected supernatants were determined with a commercially available ELISA kit (Biosource, Camarillo, Calif.) according to the manufacturer's instructions.

B1: ML-1: new member of the IL-17 cytokine family, SEQ ID NO:2; His-tagged recombinant protein expressed in COS-7 cells and affinity purified (protein, listed as Homo sapiens)
chain: MKLDIGIINENQRVSMSRNIESRSTSPWNYTVTWDPNRYPSEVVQAQCRNLGCINAQGKEDISMNSVPIQQETLVVRRKHQGCSVSFQLEKVLVTVGCTCVTPVIHHVQ
modifications: His tag
For B1, the IL-6 production was “time-dependent increase; also recorded: significantly induced”.
